In publication PMC7735678, “Auxin response factors (ARFs) differentially regulate rice antiviral immune response against rice dwarf virus”:

T1: GST-OsARF12 DBD (Oryza sativa (cDNA of ZH11), UniProt Q0J951 121-247)
T1 sequence: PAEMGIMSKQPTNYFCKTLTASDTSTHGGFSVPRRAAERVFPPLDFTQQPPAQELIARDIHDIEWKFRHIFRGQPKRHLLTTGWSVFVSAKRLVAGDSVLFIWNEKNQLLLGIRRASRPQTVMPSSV


Molecular target: T1, GST-OsARF12 DBD
Assay: EMSA; LightShift Chemiluminescent EMSA Kit (Thermo Scientific); buffer, salt, pH and temperature not stated
Details: protein: recombinant, tags: GST (N-terminal, pGEX-4T-1), blunt

Row | Binder | binding result (label: biotin as probe) | binding result (label: biotin)
1 | OsWRKY13 AuxRE mutant probe (mCold) (dsDNA) DNA 1: GTTACACCGAAAAAAGCTCACGGAT DNA 2: ATCCGTGAGCTTTTTTCGGTGTAAC | no binding | –
2 | OsWRKY13 promoter AuxRE probe (dsDNA) DNA 1: TGGTTCGTGATTAAGGGTTTGGTTACACCGTGTCCCGCTCACGGATAGGCTGCTTAATTCTCTTT DNA 2: AAAGAGAATTAAGCAGCCTATCCGTGAGCGGGACACGGTGTAACCAAACCCTTAATCACGAACCA | – | binds
